Here are results for 16 sequences from the DeepSol protein solubility set.

The nature of this data set: soluble on expression in E. coli; label from the status in PepcDB or PDB records.
As to “VQVLRLGSVGPDVKLAQSLLNKIGYPVGAVDGIYGTRTRQAVIAFQRNNGLVADGIVGPATWSVFEQFLRGYAIYYVRPGDTLYNIAGRFYTSVNSIVTANPGINPNVINIGQRLVVPYGIDVVFTDIDYTYEIMERDIQGLKARYPFLETGVAGTSVLGRNLYYLRLGTGPRQVFYNAAHHAIEWITTVLLMKFAENFLKAYSTGSRIRGYNVREIWNQSSIYIVPMVNPDGVDLVLNGLSPTNPYYADLLRWNTTGRPFSQVWSANIRGVDLNRNYPASWEEAKAQEEALGIFGPGPTRYGGPYPLSEPESSAMVSFTRTHDFRLALAYHSQGRVIYWNYLNLAPPESLTIANAFARVSGYIVLDVPYEAAYAGYKDWFIQEYRRPGFTIEVGLGQNPLPISQFNTIYNDNEEILLLASLI”, the “soluble on expression in E. coli” value was “not soluble”. Next, “VSGTRPAARRTNLTAAQNVVRSVDAEERIAWVSKALCRTTDPDELFVRGAAQRKAAVICRHCPVMQECAADALDNKVEFGVWGGMTERQRRALLKQHPEVVSWSDYLEKRKRRTGTAG”: “soluble”; “VSIKKSSGLNFDNTAIAINAGKGLEFDTNTSESPDINPIKTKIGSGIDYNENGAMITKLGAGLSFDNSGAITIGNKNDDKGSGYIPEAPRDGQAYVRKDGEWVLLSTFL”: “soluble”. In the case of “VSQLLPSDFNLRYPANSTSIVPISDLSITQIEADPNDSTIAVLTIQVIIRVNSFNNSLNFGIATYTQKIPGFLNQDSGRIALGFRDLALNANDLIIFNGIKGDTGVDAAIQSGKDNFTINSPIGFENIIFSIQDFDSTSTNASRGELGFVIKGEFNGQILLSSTINQKIVVSEFLAENLAILNAATEFGVILKPEFNLNSNRPTASQASKDNFSINFSQAPDPR” it was “soluble”. In the case of “VSRAESNRTYSGQPVAERRVARRARFLDSALSVFAEKTYAHSSISDICAHAGLSRRQFYEEFGSREDILLALYDTIQDEARDAVLAANDRAPSRDPRTVAGTVMTAYIESVGTDERRARIIFVEVVGAGPRVEQYRLERRTQWAQLFETVTRTIDGGIVDPPERFEMVSIAFIGAVNDLAHHWSTASPRPSPSVLVDVLSTMLIALVTDQT” it was “not soluble”. With “VTPYEDLLRFVLETGTPKSDRTGTGTRSLFGQQMRYDLSAGFPLLTTKKVHFKSVAYELLWFLRGDSNIGWLHEHGVTIWDEWASDTGELGPIYGVQWRSWPAPSGEHIDQISAALDLLRTDPDSRRIIVSAWNVGEIERMALPPCHAFFQFYVADGRLSCQLYQRSADLFLGVPFNIASYALLTHMMAAQAGLSVGEFIWTGGDCHIYDNHVEQVRLQLSREPRPYPKLLLADRDSIFEYTYEDIVVKNYDPHPAIKAPVAV”, the “soluble on expression in E. coli” value is given as “not soluble”. Next, “VVFVTVGTTSFDALVKAVVSQNVKDELQKRGFTHLLIQMGRGIFFPTKCDGADGSLVVDYFTFSSSIADYIRSASLVISHAGSGSIFETLKLGKPLIVVVNEDLMDNHQCELAEALEERKHLYYTRPHSLHQTLTKMELGSLVQYTPGDGTPVARIIDRFLGFPDD”: “not soluble”. Next, “VYSDPLREAIAEAEQLVAAAPHIETEADLLEGLQYLAGCIAGCMHLAFDYERDHPFLQSGTGPFTKMGLDNPDTLYFGTRLQANRDYVVSGRRGTTTDLSFQLLGGEYTDYNVPASQAAFDDRELDIAADGSFEWRLRPSAPGQLVIREVYGDWSQQRGTLAIARLDTVGTAPPPLTRELMEKRYATAGSQLVNRVKTWLQFPQWFYLNIPVNTMVAPRLTPGGLATQYSSAGHFELRPGQALVITVPVSDAPYLGFQLGSMWYISLDYINHQTSLNASQAQADPDGKVRIVVAEQNPGVTNWVETLGHRRGFLQFRWQRVSRELTEADGPTVELVDFDAIPAALPHYQHNKISEDDWRARIALRQRQIATRMLG”: “not soluble”. Consider “WCYEIQTEDPRSSCLGPEKWPGACKENQQSPINIVTARTKVNPRLTPFILVGYDQKQQWPIKNNQHTVEMTLGGGACIIGGDLPARYEAVQLHLHWSNGNDNGSEHSIDGRHFAMEMHIVHKKLTSSKEDSKDKFAVLAFMIEVGDKVNKGFQPLVEALPSISKPHSTSTVRESSLQDMLPPSTKMYTYFRYNGSLTTPNCDETVIWTVYKQPIKIHKNQFLEFSKNLYYDEDQKLNMKDNVRPLQPLGKRQVFKSHA”, for which the “soluble on expression in E. coli” value is given as “soluble”. In the case of “WLSRSERYIPMMREVLRKEGLPEDLVYLAMIESGFTPHAVSVASAVGPWQFISGTGKRYDLRIDQWIDERRDPLKSTVAAAMYLKELYSLFNQDWYLAAAGYNAGENKILRAIDKYNTRDFWEISKGSYLKRETKDYVPKLLAAAIIAKEPARYGFADVAYLPPIEFD” it was “not soluble”; in that of “WQYMFYSALSIFVSGKVTDAVYTKQKKMQVMIVTKNPDRVVDEIQKKMRRGITIIHEAEGAYRHDRQTVLLTIVTRFELPSLEAAMKESDPNAFVSISDNVKILGRFYEEDYK”, “not soluble”. In the case of “WTVIGGYLIVAGKDATTNEMLIKRYVEKNDIVFHTLMEGAPFTIIRTEGSEEIPDENILFEVAKFAASHSRAWKLGIGSADVYWVRPDQISKTAESGEYLKK” it was “not soluble”.

For the sequence “WWYEGYRPNAGWALTDKPTYRDQQMQDKLDALSLYDILEREIIPLYYDKEDKSYSEGWIRYIRRSMMYIAPHFTMKRMLDDYYDKFYGPLAQRHRSISASSFALASEIADWKQQTATHWDEMRVVRVAATGFGLCLQDNHTMQTLEIEIEKGNLSAELNVELVVISDDNQGGVSLVQTIPLNLSEQSADNRWQKYNVNCSLKNPGLHRVAIRITPHSDLLPHKMDFAYVRWAAIS”, the “soluble on expression in E. coli” value was “not soluble”. Next, “YDYSNPATLFTLSDIGVSAHRYHNRLDIFTQSLENGAAQQGIEVSLLNEKGQTLTQASSDAQGHVQLENDKNAALLLARKNGQTTLLDLKLPALDLAEFNIAGAPGYSKQFFMFGPRDLYRPGETVILNGLLRDADGKALPDQPIKLDVIKPDGQVLRSVVSQPENGLYHFTWPLDSNAATGMWHIRANTGDNQYRMWDFHVEDFMPERMALNLTGEKTPLTPKDEVKFSVVGYYLYGAPANGNTLQGQLFLRPLREAVSALPGFEFGDIAA”: “not soluble”; “YTVEPVQDGERSVTLRRAGGTPLVAAMYHLPAAGSPDFVGLDLAATILADTPSGRLYHALVPTKLASGVFGFTMDQLDPGLAMFGAQLQPGMDQDKALQTLTATLESLSSKPFSQEELERARSKWLTAWQQTYADPEKVGVALSEAIASGDWRLFFLQRDRVRDAKLDDVQRAAVAYLVRSNRTEGRYIPTEKPQRAPLAQR”: “not soluble”. Next, “YWFRSHKLERQLAEFQMQNELQYRYYAELEQKYRESRKIMHDMKNHLQAVEHLYQAKDGQEQGGAYVKDLYHMLNLLGEKYYSSNRMLNIICNDKLSLARHPAVAISVEIGDVDFSDLRDIDITTIFANLLDNALEAVEAFGEGAYLNLKIQEVHHFRVISIVNASRPGMKKEGHMGVGLENVRRTVEAYQGTMQCEIVGEEYRVSVMLPGKEDS”: “not soluble”.
